The values that follow come from patent US20190055314A1 (ADAGENE, published 2019).

The chains are these.
B1: Fab 5299 (Fab, V domains shown)
VH: EVQLVESGGGLVQPGGSLRLSCAASGYSISSGHYWGWIRQAPGKGLEWLALIDWYGDKYYSTSLKSRLTISRDNSKNTLYLQLNSLRAEDTAVYYCARSDYYGSHFDYWGQGTLVTVSS
VL: DIQLTQSPSSLSASVGDRVTITCRASESVDFDGFSFLAWYQQKPGKAPKLLIYDASNLETGVPSRFSGSGSGTDFTLTISSLQPEDFATYYCQQYDTLPRTFGQGTKVEIKR
notes: Fab from E. coli; also called VH11/VL11
B2: Fab 4072 (Fab, V domains shown)
VH: EVQLVESGGGLVQPGGSLRLSCAASGFSLSTSGVAVSWIRQAPGKGLEWIGIINPNFGDTNYAQKFQGRVTISRDNSKNTLYLQLNSLRAEDTAVYYCARDEYYGGSYYFDYWGQGTLVTVSS
VL: DIQLTQSPSSLSASVGDRVTITCRASQDVRTAVAWYQQKPGKAPKLLIYDASNLETGVPSRFSGSGSGTDFTLTISSLQPEDFATYYCQQSYDWPPTFGQGTKVEIKR
notes: Fab from E. coli; also called VH2/VL2
B3: Fab 5302 (Fab, V domains shown)
VH: EVQLVESGGGLVQPGGSLRLSCAASGFSLSTGGVGVAWIRQAPGKGLEWVSSISGYGSTTYYADSVKGRFTISRDNSKNTLYLQLNSLRAEDTAVYYCAREGSDAVLGDWFGYWGQGTLVTVSS
VL: DIQLTQSPSSLSASVGDRVTITCQASQDITTYLAWYQQKPGKAPKLLIYDASNRATGIPSRFSGSGSGTDFTLTISSLQPEDFATYYCQQGYYLWTFGQGTKVEIKR
notes: Fab from E. coli; also called VH13/VL13
B4: Fab 5408 (Fab, V domains shown)
VH: EVQLVESGGGLVQPGGSLRLSCAASGYSITSGYHWSWIRQAPGKGLEWVSSISGYGDTTYYADSVKGRFTISRDNSKNTLYLQLNSLRAEDTAVYYCAREGSDTVLGDWFAYWGQGTLVTVSS
VL: B3 VL with T30R, R54L, A55E, I58V, Y93S, L94I
notes: Fab from E. coli; also called VH36/VL36
B5: Fab 5367 (Fab, V domains shown)
VH: B3 VH with G32S, A37G, S52G, Y56A, S58D, T59S, A105T, G112A
VL: B3 VL with Q24R, T30R, T31S, Y93S, L94I
notes: Fab from E. coli; also called VH31/VL31
B6: Fab 5413 (Fab, V domains shown)
VH: EVQLVESGGGLVQPGGSLRLSCAASGFSLSTGGVAVGWIRQAPGKGLEWLALIDWDGDKSYSTSLKSRLTISRDNSKNTLYLQLNSLRAEDTAVYYCAREGSTAVVGDWFDYWGQGTLVTVSS
VL: B3 VL with Q24R, D28G, T30S, T31R, Y93S
notes: Fab from E. coli; also called VH38/VL38
B7: Fab 5359 (Fab, V domains shown)
VH: B6 VH with G32S, A35G, D56A, G57D, S60Y, T63P, E100G, T103D, V106L, D111A
VL: B3 VL with Q24R, D28G, T30G, T31S, R54L, A55E, I58V, Y93S, L94I
notes: Fab from E. coli; also called VH27/VL27
B8: Fab 5342 (Fab, V domains shown)
VH: B6 VH with D56A, S102E, T103D, V106T, D111A
VL: B3 VL with T30R, Y93S, L94I
notes: Fab from E. coli; also called VH21/VL21
B9: Fab 5370 (Fab, V domains shown)
VH: B6 VH with G32S, G37A, G57D, S60R, A104T
VL: B3 VL with Q24R, D28G, T30G, Y93S
notes: Fab from E. coli; also called VH32/VL32
B10: Fab 5314 (Fab, V domains shown)
VH: B6 VH with D56A, E100G, T103D, A104T, V106L, D111A
VL: B3 VL with Q24R, D28G, I29V, T30S, T31P, Y93S, L94T
notes: Fab from E. coli; also called VH16/VL16
B11: Fab 5318 (Fab, V domains shown)
VH: B6 VH with G32S, G57D, S60Y, V106A, D111A
VL: B3 VL with T30R, Y32F, Y93S, L94T
notes: Fab from E. coli; also called VH18/VL18
B12: Fab 5303 (Fab, V domains shown)
VH: B6 VH with G32S, D56A, G57D, S60Y, T63P, T103D, V106L, D111A
VL: DIQLTQSPSSLSASVGDRVTITCRASQDISTFLAWYQQKPGKAPKLLIYDASSLESGVPSRFSGSGSGTDFTLTISSLQPEDFATYYCQQAYSIWTFGQGTKVEIKR
notes: Fab from E. coli; also called VH14/VL14
B13: Fab 5365 (Fab, V domains shown)
VH: B6 VH with A35G, D56A, G57D, S60Y, T63P, E100G, T103D, A104T, V106I, D111A
VL: B3 VL with Q24R, D28S, T30G, T31S, R54L, A55E, I58V
notes: Fab from E. coli; also called VH30/VL30
B14: Fab 5310 (Fab, V domains shown)
VH: B6 VH with G32S, A35G, G57D, S60Y, T63P, E100G, T103D, A104T, V106L, D111A
VL: B12 VL with D28S, I29V, T31P, F32Y, A91G, I94L
notes: Fab from E. coli; also called VH15/VL15
B15: Fab 4217 (Fab, V domains shown)
VH: EVQLVESGGGLVQPGGSLRLSCAASGYSISSGYYWDWIRQAPGKGLEWVSSISGDGDTTYYADSVKGRFTISRDNSKNTLYLQLNSLRAEDTAVYYCAREYYGYGYALDYWGQGTLVTVSS
VL: DIQLTQSPSSLSASVGDRVTITCRASQGISSYLAWYQQKPGKAPKLLIYDASSLESGVPSRFSGSGSGTDFTLTISSLQPEDFATYYCQQYYSTPLTFGQGTKVEIKR
notes: Fab from E. coli; also called VH10/VL10
B16: Fab 4074 (Fab, V domains shown)
VH: EVQLVESGGGLVQPGGSLRLSCAASGFSLSTGGVGVSWIRQAPGKGLEWVSSISGSGGTTYYADSVKGRFTISRDNSKNTLYLQLNSLRAEDTAVYYCARDDLYSWYFDVWGQGTLVTVSS
VL: B12 VL with D28G, S30G, T31S, F32S, D50A, E55Q, A91G, S93Y, I94T
notes: Fab from E. coli
B17: Fab 5323 (Fab, V domains shown)
VH: EVQLVESGGGLVQPGGSLRLSCAASGFSLSTSGVGVGWIRQAPGKGLEWIGEIYHSGSTYYSPSLKSRVTISRDNSKNTLYLQLNSLKAEDTAVYYCAREGSDVVTGDWFAYWGQGTLVTVSS
VL: B12 VL with D28G, T31S, F32V, A91G, I94L
notes: Fab from E. coli; also called VH19/VL19
B18: Fab 5300 (Fab, V domains shown)
VH: EVQLVESGGGLVQPGGSLRLSCAASGYTFSNYWIHWVRQAPGKGLEWVSYISGDGDTTYYADSVKGRFTISRDNSKNTLYLQLNSLRAEDTAVYYCAREGSTTVAGDWFAYWGQGTLVTVSS
VL: B12 VL with D28G, S30G, T31S, A34G, A91Y, I94L, W95V
notes: Fab from E. coli; also called VH12/VL12

Numbering of substitutions follows the chain as printed.

In the first test the target is T1, CD137-hisFc fusion protein (Sino Biological Cat 10041-H03H) (human, UniProt Q07011 24-186).
T1 construct: Bought; also called recombinant human CD137 (fused with human Fc and His tag); not shown: His tag and human Fc
Put plainly: BLI Octet, Fab. In general terms: In BLI a coated tip is dipped into the sample, and binding shifts an interference pattern.
The Kd is the concentration at which binding is half-saturated. The term koff denotes a measure of how fast the partners let go of each other. Read a low koff as a long-lived complex. In general, kon refers to a measure of how fast the partners come together. A lower kon goes with slower complex formation. Consider B1, for which binding was put at a Kd of 13.7 nM, the koff was determined as 0.0076 s⁻¹ and the kon was 555000 M⁻¹ s⁻¹.

B2 returned a Kd of 6.95 nM, a koff of 0.00107 s⁻¹ and an on-rate (kon) of 154000 M⁻¹ s⁻¹.

As to B3, the Kd turned out to be 1.21 nM, the off-rate (koff) worked out at 0.000426 s⁻¹ and the on-rate (kon) is 354000 M⁻¹ s⁻¹.

For the molecule B4, the Kd is 23.6 nM, the koff was 0.0075 s⁻¹ and the on-rate constant (kon) was found to be 318000 M⁻¹ s⁻¹.

For the molecule B5, binding was characterised by a dissociation constant (Kd) of 14.9 nM, the off-rate (koff) was determined as 0.00608 s⁻¹ and the association rate constant (kon) was 407000 M⁻¹ s⁻¹.

Consider B6, for which the equilibrium dissociation constant (Kd) came out at 0.993 nM, the dissociation rate constant (koff) was determined as 0.000551 s⁻¹ and the on-rate constant (kon) came out at 555000 M⁻¹ s⁻¹.

In turn, B7 displayed a Kd of 0.71 nM, an off-rate (koff) of 0.00033 s⁻¹ and a kon of 464000 M⁻¹ s⁻¹.

B8 came in with a Kd of 38.9 nM, a dissociation rate constant (koff) of 0.00612 s⁻¹ and an association rate constant (kon) of 157000 M⁻¹ s⁻¹.

For B9, the dissociation constant (Kd) worked out at 1.91 nM, the koff came out at 0.001 s⁻¹ and the on-rate constant (kon) was found to be 524000 M⁻¹ s⁻¹.

The molecule B10 yielded an equilibrium dissociation constant (Kd) of 8.39 nM, a koff of 0.00177 s⁻¹ and a kon of 210000 M⁻¹ s⁻¹.

In turn, B11 showed an equilibrium dissociation constant (Kd) of 19 nM, a koff of 0.00269 s⁻¹ and an on-rate constant (kon) of 141000 M⁻¹ s⁻¹.

In turn, B12 had a Kd of 5.12 nM, an off-rate (koff) of 0.00509 s⁻¹ and a kon of 995000 M⁻¹ s⁻¹.

Take B13: the dissociation constant Kd stood at 2.56 nM, the off-rate constant (koff) was determined as 0.00179 s⁻¹ and the kon was 701000 M⁻¹ s⁻¹.

In the case of B14, the Kd was 5.72 nM, the off-rate (koff) was found to be 0.00465 s⁻¹ and the on-rate constant (kon) came out at 813000 M⁻¹ s⁻¹.

Take B15: the dissociation constant (Kd) was found to be 96.7 nM, the koff was found to be 0.0545 s⁻¹ and the on-rate (kon) was 564000 M⁻¹ s⁻¹.

B16 gave a Kd of 19.5 nM, an off-rate (koff) of 0.000937 s⁻¹ and an on-rate constant (kon) of 48000 M⁻¹ s⁻¹.

Take B17: the Kd came out at 10.4 nM, the koff was found to be 0.00812 s⁻¹ and the kon amounted to 782000 M⁻¹ s⁻¹.

Consider B18, for which binding was characterised by a dissociation constant (Kd) of 15.3 nM, the koff came to 0.0091 s⁻¹ and the kon was determined as 596000 M⁻¹ s⁻¹.

A further test concerns the target T1, CD137-hisFc fusion protein (Sino …). Briefly: BLI Octet, Fab. This is another data set of the same source.
Turning to B1, binding was put at a Kd of 14 nM, the koff came to 0.0076 s⁻¹ and the kon was 560000 M⁻¹ s⁻¹.

In turn, B2 gave a Kd of 7 nM, a koff of 0.0011 s⁻¹ and an association rate constant (kon) of 150000 M⁻¹ s⁻¹.

Consider B3, for which the Kd was 1.2 nM, the koff turned out to be 0.00043 s⁻¹ and the kon turned out to be 350000 M⁻¹ s⁻¹.

As to B4, the Kd came to 24 nM, the off-rate constant (koff) amounted to 0.0075 s⁻¹ and the kon amounted to 320000 M⁻¹ s⁻¹.

B5 returned a Kd of 15 nM, a koff of 0.0061 s⁻¹ and a kon of 410000 M⁻¹ s⁻¹.

In turn, B6 showed a dissociation constant (Kd) of 0.99 nM, a koff of 0.00055 s⁻¹ and a kon of 560000 M⁻¹ s⁻¹.

On to B7, for which the Kd came out at 0.71 nM, the koff stood at 0.00033 s⁻¹ and the kon worked out at 460000 M⁻¹ s⁻¹.

Consider B8, for which the affinity, expressed as Kd, was 39 nM; the koff is 0.0061 s⁻¹; the on-rate constant (kon) was 160000 M⁻¹ s⁻¹.

With B9, the dissociation constant Kd was determined as 1.9 nM, the koff is 0.001 s⁻¹ and the kon was 520000 M⁻¹ s⁻¹.

The molecule B10 came in with a Kd of 8.4 nM, an off-rate (koff) of 0.0018 s⁻¹ and a kon of 210000 M⁻¹ s⁻¹.

With B11, binding was characterised by a dissociation constant (Kd) of 19 nM, the off-rate (koff) stood at 0.0027 s⁻¹ and the on-rate constant (kon) amounted to 140000 M⁻¹ s⁻¹.

The molecule B12 showed an equilibrium dissociation constant (Kd) of 5.1 nM, an off-rate (koff) of 0.0051 s⁻¹ and a kon of 1e+06 M⁻¹ s⁻¹.

In turn, B13 displayed a Kd of 2.6 nM, an off-rate (koff) of 0.0018 s⁻¹ and an on-rate constant (kon) of 700000 M⁻¹ s⁻¹.

In turn, B14 came in with a Kd of 5.7 nM, a dissociation rate constant (koff) of 0.0047 s⁻¹ and a kon of 810000 M⁻¹ s⁻¹.

With B15, binding was characterised by a dissociation constant (Kd) of 97 nM, the off-rate (koff) amounted to 0.055 s⁻¹ and the kon turned out to be 560000 M⁻¹ s⁻¹.

Take B16: the dissociation constant Kd was determined as 20 nM, the koff turned out to be 0.00094 s⁻¹ and the kon stood at 48000 M⁻¹ s⁻¹.

As to B17, the dissociation constant Kd amounted to 10 nM, the off-rate (koff) was found to be 0.0081 s⁻¹ and the on-rate (kon) is 780000 M⁻¹ s⁻¹.

The molecule B18 displayed a Kd of 15 nM, a koff of 0.0091 s⁻¹ and an association rate constant (kon) of 600000 M⁻¹ s⁻¹.
